# Measurements published in patent publication US20110065123A1.
# Target: Rac1 (non-glucosylated) of mouse intestinal epithelial CT26 cells (mouse) (UniProt P63001)
# Test: cell-based or functional assay
row,Substance,"glucosylation of Rac1 in CT26 cells, 5 h (Western blot with anti-Rac1 clone 102): complete"
1,"full-length recombinant Clostridium difficile toxin A (rTcdA), His-tagged, expressed in Bacillus megaterium (from UniProt P16154 1-2710) (enzyme)",40 ng/mL
2,"full-length recombinant Clostridium difficile toxin B (rTcdB), His-tagged, expressed in Bacillus megaterium (from UniProt P18177 2-2366) (enzyme)",0.4 to 2 ng/mL
3,native TcdA (nTcdA) purified from culture supernatant of C. difficile strain VPI 10463 (from UniProt P16154 1-2710) (enzyme),40 ng/mL
4,native TcdB (nTcdB) purified from C. difficile strain VPI 10463 (from UniProt P18177 2-2366) (enzyme),0.4 to 2 ng/mL
